Source: article PMC12102759

B1: PIP5K1C peptide 640-655 (Phosphatidylinositol 4-phosphate 5-kinase type-1 gamma), 16-mer library wild type / TLN1 PTB (TLN1 Phosphotyrosine-binding (PTB) domain, residues 309-401) (parent)
chain 1: FPTDERSWVYSPLHYS
chain 2: GVSFFLVKEKMKGKNKLVPRLLGITKECVMRVDEKTKEVIQEWNLTNIKRWAASPKSFTLDFGDYQDGYYSVQTTEGEQIAQLIAGYIDIILK
B2: RNF115 peptide 67-82 (E3 ubiquitin-protein ligase RNF115), 16-mer library wild type / MDM2 SWIB (MDM2 SWIB/MDM2 domain, residues 17-125) (parent)
chain 1: TTTHFAELWGHLDHTM
chain 2: SQIPASEQETLVRPKPLLLKLLKSVGAQKDTYTMKEVLFYLGQYIMTKRLYDEKQQHIVYCSNDLLGDLFGVPSFSVKEHRKIYTMIYRNLVVVNQQESSDSGTSVSEN

Variants of: B1
Assay: proteomic peptide phage display deep mutational scan (ProP-PD DMS): M13 P8 16-mer library selected against immobilised GST-tagged bait for four days (rounds), NGS of the eluted pools per day and pseudo-replica
Conditions: with TLN1 PTB (TLN1 Phosphotyrosine-binding (PTB) domain, residues 309-401); bait immobilised on MaxiSorp plates (10 µg), library pre-cleared on GST, 2 h binding at 4 °C, five washes; one round per day, days 1-4; value from days 2 and 3; keep out of graded; scale: average fractional NGS count over selection days 2 and 3

Variant	screen value
chain 1 FPTDERSWLYSPLHYS [chain 1 V9L]	0.000573
chain 1 FPTDERSWNYSPLHYS [chain 1 V9N]	0.00995
chain 1 FPTDERSWTYSPLHYS [chain 1 V9T]	0.000147
chain 1 FPTDERSWKYSPLHYS [chain 1 V9K]	0.000808
chain 1 FPTDERSWYYSPLHYS [chain 1 V9Y]	0.000288
chain 1 FPTDERSWMYSPLHYS [chain 1 V9M]	0.00044
chain 1 FPTDERSWRYSPLHYS [chain 1 V9R]	0.000353
chain 1 FPTDERSWWYSPLHYS [chain 1 V9W]	0.000872
chain 1 FPTDERSWQYSPLHYS [chain 1 V9Q]	0.000257

Second part, the variant after the results:

screen value	Variant
0.000394	chain 1 FPTDERSWVPSPLHYS [chain 1 Y10P]
0.000303	chain 1 FPTDERSWVASPLHYS [chain 1 Y10A]
0.000216	chain 1 FPTDERSWVNSPLHYS [chain 1 Y10N]
0.00032	chain 1 FPTDERSWVMSPLHYS [chain 1 Y10M]
0.000521	chain 1 FPTDERSWVDSPLHYS [chain 1 Y10D]
0.00109	chain 1 FPTDERSWVKSPLHYS [chain 1 Y10K]
0.000662	chain 1 FPTDERSWVFSPLHYS [chain 1 Y10F]
0.000358	chain 1 FPTDERSWVLSPLHYS [chain 1 Y10L]
0.00117	chain 1 FPTDERSWVTSPLHYS [chain 1 Y10T]
0.000754	chain 1 FPTDERSWVQSPLHYS [chain 1 Y10Q]
0.000894	chain 1 FPTDERSWVRSPLHYS [chain 1 Y10R]
0.00342	chain 1 FPTDERSWVSSPLHYS [chain 1 Y10S]
0.000546	chain 1 FPTDERSWVISPLHYS [chain 1 Y10I]
0.000724	chain 1 FPTDERSWVVSPLHYS [chain 1 Y10V]
8.84e-05	chain 1 FPTDERSWVWSPLHYS [chain 1 Y10W]
6.93e-05	chain 1 FPTDERSWVHSPLHYS [chain 1 Y10H]
7.15e-05	chain 1 FPTDERSFVYSPLHYS [chain 1 W8F]
0	chain 1 FPTDERSDVYSPLHYS [chain 1 W8D]

screen value	Variant
0	chain 1 FPTDERSGVYSPLHYS [chain 1 W8G]
5.2e-05	chain 1 FPTDERSWVYSPLHNS [chain 1 Y15N]
0.000245	chain 1 FPTDERSWVYSPLHTS [chain 1 Y15T]
0.000141	chain 1 FPTDERSWVYSPLHMS [chain 1 Y15M]
3.79e-05	chain 1 FPTDERSWVYSPLHLS [chain 1 Y15L]
0.00126	chain 1 FPTDERSWVYSPLHDS [chain 1 Y15D]
0.00057	chain 1 FPTDERSWVYSPLHGS [chain 1 Y15G]
0.000186	chain 1 FPTDERSWVYSPLHIS [chain 1 Y15I]
0.000347	chain 1 FPTDERSWVYSPLHES [chain 1 Y15E]
0.000167	chain 1 FPTDERSWVYSPLHPS [chain 1 Y15P]
0.000656	chain 1 FPTDERSWVYSPLHAS [chain 1 Y15A]
0.000895	chain 1 FPTDERSWVYSPLHKS [chain 1 Y15K]
0.000186	chain 1 FPTDERSWVYSPLHVS [chain 1 Y15V]
0.000911	chain 1 FPTDERSWVYSPLHWS [chain 1 Y15W]
0.000147	chain 1 FPTDERSWVYSPLHQS [chain 1 Y15Q]
0.00152	chain 1 FPTDERSWVYSPLHFS [chain 1 Y15F]
0.000526	chain 1 FPTDERSWVYSPLHHS [chain 1 Y15H]
0.000401	chain 1 FPTDERSWVYSPLHSS [chain 1 Y15S]

Variants of: B2
Assay: as above
Conditions: with MDM2 SWIB (MDM2 SWIB/MDM2 domain, residues 17-125); bait immobilised on MaxiSorp plates (10 µg), library pre-cleared on GST, 2 h binding at 4 °C, five washes; one round per day, days 1-4; value from days 2 and 3; keep out of graded; scale: average fractional NGS count over selection days 2 and 3

Variant	screen value
chain 1 A6F	0.000296
chain 1 A6Y	0.000156
chain 1 A6T	0.00014
chain 1 A6N	0.000134
chain 1 A6R	0
chain 1 A6P	3.8e-05
chain 1 T15P	7.64e-05
chain 1 T15E	4.41e-05
chain 1 T15K	2.45e-05
chain 1 T15N	4.79e-05
chain 1 T15R	5.55e-05
chain 1 L12K	0
chain 1 L12T	0
chain 1 L12F	0
chain 1 L12V	1.9e-05
chain 1 L12S	0
chain 1 H4R	1.9e-05
chain 1 H4W	2.47e-05
chain 1 T2F	4.31e-05
chain 1 T2N	7.17e-05
chain 1 T2W	2.98e-05
chain 1 T3N	6.02e-05
chain 1 L8E	4.72e-05
chain 1 L8P	1.29e-05
chain 1 L8N	0
chain 1 L8Q	0

Variant	screen value
chain 1 L8S	0
chain 1 L8A	0
chain 1 H14K	0.000119
chain 1 H14D	2.82e-05
chain 1 F5K	0
chain 1 F5D	0
chain 1 F5N	0
chain 1 F5R	0
chain 1 F5A	0
chain 1 M16G	4.72e-05
chain 1 M16K	0
chain 1 M16R	0.000117
chain 1 M16S	0.000115
chain 1 M16H	4.26e-05
chain 1 E7Y	0
chain 1 E7G	0
chain 1 E7S	0
chain 1 E7W	5.37e-05
chain 1 E7L	7.08e-05
chain 1 G10R	2.89e-05
chain 1 G10K	0
chain 1 G10F	3.49e-05
chain 1 G10E	8.15e-05
chain 1 G10V	7.22e-05
chain 1 G10H	5.57e-05
chain 1 D13K	0

The remaining lines, values ahead:

screen value	Variant
0	chain 1 W9Y
0	chain 1 W9Q
4.89e-05	chain 1 W9K
0	chain 1 W9H
3.98e-05	chain 1 W9P
0	chain 1 W9N
0	chain 1 W9D
0.000116	chain 1 W9G
0	chain 1 W9L
7.05e-05	chain 1 W9T
0	chain 1 W9A
